Publication PMC3050068
Values belong to the substance of their own block, whether it stands above or below them.

Assays:
[1] = tested on: O=C(O)[C@H]1O[C@H](OP(=O)(O)OP(=O)(O)OC[C@H]2O[C@@H](n3ccc(=O)[nH]c3=O)[C@H](O)[C@@H]2O)[C@H](O)[C@@H](O)[C@@H]1O; assay: purified protein; conditions: NAD+ as co-substrate, pH 8.5, 25°C, without WlbC
[2] = tested on: O=C(O)[C@H]1O[C@H](OP(=O)(O)OP(=O)(O)OC[C@H]2O[C@@H](n3ccc(=O)[nH]c3=O)[C@H](O)[C@@H]2O)[C@H](O)[C@@H](O)[C@@H]1O; assay: purified protein; format: biochemical, Chromobacterium violaceum; conditions: NAD+ as co-substrate, pH 8.5 (50 mM HEPPS), 25°C, without WlbC
[3] = molecular target: WlbA from Chromobacterium violaceum (Chromobacterium violaceum); assay: AUC
[4] = molecular target: WlbA from Chromobacterium violaceum (Chromobacterium violaceum); assay: crystal structure

Substance: B. pertussis WlbA (Bordetella pertussis Tohama I)
Km [1]: 2050 ± 210 µM
kcat [1]: 0.0021 ± 0.0001 s⁻¹
kcat/Km [1]: 1 M⁻¹ s⁻¹

Substance: C. violaceum WlbA (Chromobacterium violaceum ATCC 12472)
Km [2]: 200 ± 20 µM
kcat [2]: 0.00015 ± 0.00001 s⁻¹
kcat/Km [2]: 0.75 M⁻¹ s⁻¹

stoichiometry N [3]: 8
stoichiometry N [4]: 8
Substance: WlbA from Chromobacterium violaceum (enzyme)
